B1: Mothers against decapentaplegic homolog 4 (Homo sapiens), Q13485 (parent)
chain: MDNMSITNTPTSNDACLSIVHSLMCHRQGGESETFAKRAIESLVKKLKEKKDELDSLITAITTNGAHPSKCVTIQRTLDGRLQVAGRKGFPHVIYARLWRWPDLHKNELKHVKYCQYAFDLKCDSVCVNPYHYERVVSPGIDLSGLTLQSNAPSSMMVKDEYVHDFEGQPSLSTEGHSIQTIQHPPSNRASTETYSTPALLAPSESNATSTANFPNIPVASTSQPASILGGSHSEGLLQIASGPQPGQQQNGFTGQPATYHHNSTTTWTGSRTAPYTPNLPHHQNGHLQHHPPMPPHPGHYWPVHNELAFQPPISNHPAPEYWCSIAYFEMDVQVGETFKVPSSCPIVTVDGYVDPSGGDRFCLGQLSNVHRTEAIERARLHIGKGVQLECKGEGDVWVRCLSDHAVFVQSYYLDREAGRAPGDAVHKIYPSAYIKVFDLRQCHRQMQQQAATAQAAAAAQAAAVAGNIPGPGSVGGIAPAISLSAAAGIGVDDLRRLCILRMSFVKGWGPDYPRQSIKETPCWIEIHLHRALQLLDEVLHTMPIADPQPLD
partner: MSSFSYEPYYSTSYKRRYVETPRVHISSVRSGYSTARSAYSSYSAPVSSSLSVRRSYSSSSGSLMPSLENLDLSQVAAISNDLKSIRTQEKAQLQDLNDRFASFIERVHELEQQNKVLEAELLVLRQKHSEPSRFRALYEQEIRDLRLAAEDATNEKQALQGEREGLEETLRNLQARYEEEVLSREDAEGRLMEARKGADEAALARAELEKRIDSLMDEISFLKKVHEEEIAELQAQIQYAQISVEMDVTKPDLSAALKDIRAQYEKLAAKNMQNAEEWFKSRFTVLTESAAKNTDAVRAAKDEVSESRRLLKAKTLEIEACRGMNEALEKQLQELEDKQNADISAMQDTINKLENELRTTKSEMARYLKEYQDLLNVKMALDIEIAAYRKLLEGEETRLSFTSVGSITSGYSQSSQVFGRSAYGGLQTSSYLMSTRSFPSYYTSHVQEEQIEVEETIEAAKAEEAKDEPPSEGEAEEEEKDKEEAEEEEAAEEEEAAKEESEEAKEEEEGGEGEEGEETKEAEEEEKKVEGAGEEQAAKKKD
B2: Mothers against decapentaplegic homolog 4 (Homo sapiens), Q13485 (parent)
chain: B1 chain
partner: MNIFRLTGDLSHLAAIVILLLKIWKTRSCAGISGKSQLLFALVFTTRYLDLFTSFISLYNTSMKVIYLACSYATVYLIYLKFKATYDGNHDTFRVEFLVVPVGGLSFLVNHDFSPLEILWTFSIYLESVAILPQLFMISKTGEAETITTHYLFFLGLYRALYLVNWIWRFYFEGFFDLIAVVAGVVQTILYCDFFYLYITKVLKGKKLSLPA
B3: Mothers against decapentaplegic homolog 4 (Homo sapiens), Q13485 (parent)
chain: B1 chain
partner: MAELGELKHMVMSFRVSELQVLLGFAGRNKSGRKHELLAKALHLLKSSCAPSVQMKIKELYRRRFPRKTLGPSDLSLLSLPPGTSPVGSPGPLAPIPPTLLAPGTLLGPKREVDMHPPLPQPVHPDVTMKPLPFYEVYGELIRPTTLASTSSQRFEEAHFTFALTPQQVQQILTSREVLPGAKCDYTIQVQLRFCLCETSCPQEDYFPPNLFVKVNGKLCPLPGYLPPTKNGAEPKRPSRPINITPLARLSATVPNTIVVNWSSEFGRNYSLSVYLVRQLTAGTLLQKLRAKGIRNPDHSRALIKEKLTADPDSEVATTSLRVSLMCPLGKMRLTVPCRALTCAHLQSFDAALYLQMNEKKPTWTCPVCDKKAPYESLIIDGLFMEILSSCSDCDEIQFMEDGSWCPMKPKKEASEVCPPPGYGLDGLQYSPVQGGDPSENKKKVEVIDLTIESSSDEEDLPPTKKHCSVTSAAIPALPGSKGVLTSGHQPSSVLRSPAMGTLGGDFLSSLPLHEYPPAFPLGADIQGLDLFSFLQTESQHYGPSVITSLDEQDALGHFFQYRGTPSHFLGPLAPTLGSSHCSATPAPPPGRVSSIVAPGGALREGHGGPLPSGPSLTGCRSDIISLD
B4: Mothers against decapentaplegic homolog 4 (Homo sapiens), Q13485 (parent)
chain: B1 chain
partner: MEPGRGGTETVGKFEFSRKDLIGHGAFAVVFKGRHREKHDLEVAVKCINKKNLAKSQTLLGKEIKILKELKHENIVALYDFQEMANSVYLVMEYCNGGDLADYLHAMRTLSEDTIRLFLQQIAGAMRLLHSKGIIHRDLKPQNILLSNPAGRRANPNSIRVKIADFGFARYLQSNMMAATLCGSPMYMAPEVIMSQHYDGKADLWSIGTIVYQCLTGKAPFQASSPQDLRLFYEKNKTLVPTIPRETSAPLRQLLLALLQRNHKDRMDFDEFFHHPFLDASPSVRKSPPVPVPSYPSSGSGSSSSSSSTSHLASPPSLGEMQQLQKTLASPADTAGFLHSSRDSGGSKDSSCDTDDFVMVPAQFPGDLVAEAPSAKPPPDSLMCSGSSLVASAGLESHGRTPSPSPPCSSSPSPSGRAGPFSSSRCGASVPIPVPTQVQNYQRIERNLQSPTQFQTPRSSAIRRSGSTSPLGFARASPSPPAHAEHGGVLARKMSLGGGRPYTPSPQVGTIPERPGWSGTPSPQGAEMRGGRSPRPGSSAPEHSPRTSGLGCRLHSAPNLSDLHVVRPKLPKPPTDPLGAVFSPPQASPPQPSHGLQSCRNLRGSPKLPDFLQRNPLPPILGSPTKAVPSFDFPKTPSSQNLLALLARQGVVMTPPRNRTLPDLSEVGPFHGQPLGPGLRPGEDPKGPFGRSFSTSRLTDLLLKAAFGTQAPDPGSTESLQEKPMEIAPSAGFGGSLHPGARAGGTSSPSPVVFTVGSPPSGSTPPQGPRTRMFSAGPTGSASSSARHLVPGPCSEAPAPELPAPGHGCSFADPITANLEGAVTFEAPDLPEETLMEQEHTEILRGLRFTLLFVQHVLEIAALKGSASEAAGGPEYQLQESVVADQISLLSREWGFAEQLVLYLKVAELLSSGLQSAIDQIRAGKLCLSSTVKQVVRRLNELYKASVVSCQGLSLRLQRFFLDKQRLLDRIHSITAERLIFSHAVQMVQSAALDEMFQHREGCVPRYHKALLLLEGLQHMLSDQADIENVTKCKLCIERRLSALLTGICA
B5: Mothers against decapentaplegic homolog 4 (Homo sapiens), Q13485 (parent)
chain: B1 chain
partner: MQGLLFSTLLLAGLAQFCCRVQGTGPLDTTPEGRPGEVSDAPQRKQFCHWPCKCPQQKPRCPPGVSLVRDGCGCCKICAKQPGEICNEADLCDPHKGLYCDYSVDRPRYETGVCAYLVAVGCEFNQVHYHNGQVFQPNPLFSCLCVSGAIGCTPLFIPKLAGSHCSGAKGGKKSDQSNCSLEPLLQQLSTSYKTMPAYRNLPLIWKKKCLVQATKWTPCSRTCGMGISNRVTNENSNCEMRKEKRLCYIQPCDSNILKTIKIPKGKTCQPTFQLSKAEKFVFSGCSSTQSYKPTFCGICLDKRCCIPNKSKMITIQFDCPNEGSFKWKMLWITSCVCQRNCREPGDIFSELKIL

Variants of B1 are the subject of the first assay. The conditions noted are these: with nfl_human NEFL.
As for G386D, the “effect of a mutation on the interaction” value was “with no effect”.

Variants of B2 are the subject of another assay. The conditions noted are these: with erd22_human KDELR2, P33947.
Consider G386D, for which the “effect of a mutation on the interaction” value is recorded as “with no effect”.

In another assay the parent is B2. The conditions noted are these: with erd22_human KDELR2, P33947. This is another data set of the same source.
Regarding R361C, the “effect of a mutation on the interaction” value is recorded as “with no effect”.

In the next assay the parent is B2. The conditions noted are these: with erd22_human KDELR2, P33947. The source holds these as a separate data set.
In the case of R361H, the “effect of a mutation on the interaction” value is recorded as “with no effect”.

The variants in another assay derive from B3. The conditions noted are these: with pias3_human PIAS3, Q9Y6X2.
Take G386D: the “effect of a mutation on the interaction” value is “with no effect”.

The variants in a further assay derive from B3. The conditions noted are these: with pias3_human PIAS3, Q9Y6X2. This is another data set of the same source.
With G386D, the “effect of a mutation on the interaction” value is on record as “increasing interaction strength”.

In another assay the parent is B4. The conditions noted are these: with ulk1_human ULK1, O75385.
R361H: the “effect of a mutation on the interaction” value is “with no effect”.

In a further assay the parent is B4. The following applies: with ulk1_human ULK1, O75385. The source holds these as a separate data set.
In the case of R361C, the “effect of a mutation on the interaction” value is reported as “with no effect”.

In another assay the parent is B4. The following applies: with ulk1_human ULK1, O75385. The source holds these as a separate data set.
As to G386D, the “effect of a mutation on the interaction” value is on record as “with no effect”.

Another assay covers variants of B4. The following applies: with ulk1_human ULK1, O75385. The source holds these as a separate data set.
As for D351H, the “effect of a mutation on the interaction” value is listed as “with no effect”.

In the next assay the parent is B5. The following applies: with ccn6_human CCN6, O95389.
As for D351H, the “effect of a mutation on the interaction” value is listed as “with no effect”.

In the next assay the parent is B5. The following applies: with ccn6_human CCN6, O95389. The source holds these as a separate data set.
As to G386D, the “effect of a mutation on the interaction” value was “with no effect”.
